From patent publication US20120094280

Assays:
[1] = biological target: T1, M.HpaII DNA cytosine-C5 methyltransferase (UniProt P15446); conditions: formaldehyde; CCGG sites resistant to R.HpaII
T1 sequence: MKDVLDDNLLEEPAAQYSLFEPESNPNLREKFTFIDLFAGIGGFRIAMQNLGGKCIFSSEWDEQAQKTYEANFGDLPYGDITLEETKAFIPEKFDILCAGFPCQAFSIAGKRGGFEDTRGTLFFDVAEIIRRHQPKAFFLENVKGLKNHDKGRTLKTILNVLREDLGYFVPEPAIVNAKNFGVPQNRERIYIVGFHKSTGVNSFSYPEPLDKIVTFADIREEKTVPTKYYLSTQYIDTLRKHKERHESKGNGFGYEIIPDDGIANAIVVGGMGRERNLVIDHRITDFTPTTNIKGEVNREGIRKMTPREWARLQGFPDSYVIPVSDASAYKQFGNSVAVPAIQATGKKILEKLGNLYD

[2] = biological target: M.SssI DNA cytosine-C5 methyltransferase (Spiroplasma sp.?) (UniProt P15840); conditions: formaldehyde; GCGC site resistant to R.Hin6I
Chain of M.SssI DNA cytosine-C5 methyltransferase (Spiroplasma sp.?) (P15840 whole entry): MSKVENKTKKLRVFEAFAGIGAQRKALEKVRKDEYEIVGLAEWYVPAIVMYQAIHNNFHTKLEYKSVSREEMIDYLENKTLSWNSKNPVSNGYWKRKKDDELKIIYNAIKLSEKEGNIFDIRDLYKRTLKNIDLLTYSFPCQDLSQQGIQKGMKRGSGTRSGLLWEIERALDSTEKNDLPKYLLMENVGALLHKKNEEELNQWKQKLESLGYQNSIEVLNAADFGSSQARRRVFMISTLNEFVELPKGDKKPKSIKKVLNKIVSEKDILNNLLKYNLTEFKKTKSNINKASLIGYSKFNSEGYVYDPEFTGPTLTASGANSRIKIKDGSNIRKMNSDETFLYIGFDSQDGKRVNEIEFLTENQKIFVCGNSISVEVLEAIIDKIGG

## pUC-618 PCR fragment (618 bp)
[1]
  activity: 70%
[2]
  activity: 70%
